The chains are these.
T1: human CD73 on cells (human, UniProt P21589 27-549)
T1 sequence: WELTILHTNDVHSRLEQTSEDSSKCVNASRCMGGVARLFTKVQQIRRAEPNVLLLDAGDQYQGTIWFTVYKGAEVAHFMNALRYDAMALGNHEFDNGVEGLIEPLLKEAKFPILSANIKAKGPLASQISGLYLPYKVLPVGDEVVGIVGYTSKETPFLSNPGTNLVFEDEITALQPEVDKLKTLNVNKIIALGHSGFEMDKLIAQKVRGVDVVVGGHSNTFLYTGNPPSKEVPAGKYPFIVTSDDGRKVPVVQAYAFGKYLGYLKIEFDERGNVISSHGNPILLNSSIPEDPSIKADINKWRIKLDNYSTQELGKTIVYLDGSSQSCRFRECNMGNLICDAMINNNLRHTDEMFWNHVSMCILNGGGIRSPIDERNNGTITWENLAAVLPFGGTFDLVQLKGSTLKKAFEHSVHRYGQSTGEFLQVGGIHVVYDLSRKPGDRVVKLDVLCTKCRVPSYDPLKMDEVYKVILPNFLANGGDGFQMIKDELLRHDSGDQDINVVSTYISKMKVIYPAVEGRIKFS

T2: N-hCD73-his (N-terminal domain of human CD73, residues 26-336, His tag) (human, UniProt P21589 26-336)
T2 sequence: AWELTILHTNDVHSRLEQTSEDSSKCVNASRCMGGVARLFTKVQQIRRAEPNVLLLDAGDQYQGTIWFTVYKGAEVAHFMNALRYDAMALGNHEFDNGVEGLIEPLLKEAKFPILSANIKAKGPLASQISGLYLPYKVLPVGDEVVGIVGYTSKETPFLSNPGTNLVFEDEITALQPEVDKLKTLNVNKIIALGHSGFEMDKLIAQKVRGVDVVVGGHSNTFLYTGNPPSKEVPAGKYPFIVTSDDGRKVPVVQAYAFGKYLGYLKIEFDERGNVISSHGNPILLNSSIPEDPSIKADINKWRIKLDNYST

T3: rhCD73 bound to his-tag magnet beads (human, UniProt P21589 27-547, limits assumed)
T3 sequence: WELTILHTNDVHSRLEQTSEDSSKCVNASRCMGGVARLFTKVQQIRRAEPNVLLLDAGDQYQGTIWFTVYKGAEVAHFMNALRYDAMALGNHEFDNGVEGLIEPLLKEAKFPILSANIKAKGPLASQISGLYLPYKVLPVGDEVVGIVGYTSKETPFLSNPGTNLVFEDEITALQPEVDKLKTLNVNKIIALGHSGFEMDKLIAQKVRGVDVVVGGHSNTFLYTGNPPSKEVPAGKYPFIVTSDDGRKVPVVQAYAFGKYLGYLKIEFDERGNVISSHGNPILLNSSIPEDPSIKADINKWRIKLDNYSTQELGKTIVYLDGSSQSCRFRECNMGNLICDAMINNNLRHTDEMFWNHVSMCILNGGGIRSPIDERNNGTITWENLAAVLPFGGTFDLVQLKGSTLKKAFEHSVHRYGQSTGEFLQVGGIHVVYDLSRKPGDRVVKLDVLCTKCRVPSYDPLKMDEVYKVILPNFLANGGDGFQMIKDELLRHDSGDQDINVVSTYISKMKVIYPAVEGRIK

B1: 4D4 (antibody, human IgG2, kappa)
heavy: QVQLVESGGGVVQPGRSLRLSCAASGFTFSNYGMHWVRQAPGKGLEWVAVIWYDESNKYYADSVKGRFTISRDNSKNTLFLQMNSLRAEDTAVYYCARGYNSRWYPDAFDIWGQGTMVTVSSASTKGPSVFPLAPCSRSTSESTAALGCLVKDYFPEPVTVSWNSGALTSGVHTFPAVLQSSGLYSLSSVVTVPSSNFGTQTYTCNVDHKPSNTKVDKTVERKCCVECPPCPAPPVAGPSVFLFPPKPKDTLMISRTPEVTCVVVDVSHEDPEVQFNWYVDGVEVHNAKTKPREEQFNSTFRVVSVLTVVHQDWLNGKEYKCKVSNKGLPAPIEKTISKTKGQPREPQVYTLPPSREEMTKNQVSLTCLVKGFYPSDIAVEWESNGQPENNYKTTPPMLDSDGSFFLYSKLTVDKSRWQQGNVFSCSVMHEALHNHYTQKSLSLSPGK
light: not shown
notes: IgG2; also called 4D4-1
B2: 10D2 (antibody, human IgG4, kappa, V domains shown)
VH: QVQLVESGGGVVQPGRSLRLSCAASGFTFSNYGLHWVRQAPGKGLEWVAVIRYDGSNKYYADSVKGRFTISRDNSKNTLYLQMSSLRAEDTAVYYCARGGSSWYPDGLDVWGQGTTVTVSS
VL: DIQMTQSPSSLSASVGDRVTITCRASQGISSWLAWYQQKPEKAPKSLIYAASSLQSGVPSRFSGSGSGTDFTLTISSLQPEDFATYYCQQYNSYPLTFGGGTKVEIKR
notes: also called 10D2-2
B3: 7A11 (antibody, human IgG1, kappa, V domains shown)
VH: EVQLVESGGGLVQTGRSLRLSCAASGFTFDDYAMHWVRQAPGKGLEWVSDISWNSDIIGYADSVKGRFTISRDNAKNSLYLQMNSLRAEDTALYYCAKDIYGSGSSFFDYWGQGILVTVSS
VL: B2 VL with G28Y, N92H, L96P, G100Q, K103R, V104L
notes: IgG1za; also called 7A11-1
B4: 24H2 (antibody, human IgG4, kappa, V domains shown)
VH: B2 VH with L34M, R52W, S56G, Y80F, S84N, G107A, L108F, V110I, T116M
VL: B2 VL
notes: also called 24H2-1
B5: 11A6 (antibody, human IgG1, kappa, V domains shown)
VH: EVQLVESGGNLVQPGRSLRLSCAASGFTFDDYAMHWVRQAPGKGLEWVSGISWNNNDIGYADSVKGRFIISRDNAKNSLYLQMNSLRPEDTALYYCVKGYYVILTGLDYWGQGTPVTVSS
VL: B2 VL
notes: IgG1za; also called 11A6-1
B6: 5F8 (antibody, human IgG1, kappa, V domains shown)
VH: EVQLVESGGGLVQPGGSLRLSCAASGFTFSSYWMHWVRQAPGKGLVWVSRIISDGSSTGYADSVKGRFTISRDNAKNTLYLQMNSLRAEDTAVYYCAREFSSGWYFDYWGQGTLVTVSS
VL: AIQLTQSPSSLSASVGDRVTITCRASQGISSALAWYQQKPGKAPKLLIYDASSLESGVPSRFSGSGSGTDFTLTISSLQPEDFATYYCQQFSSYPRTFGQGTKVEIKR
notes: IgG1za; VK2 also expressed; also called 5F8-1
B7: CD73.11-IgG2-C219S (antibody)
heavy: QVQLVESGGGVVQPGRSLRLSCAASGFTFSNYGMHWVRQAPGKGLEWVAVIWYDESNKYYADSVKGRFTISRDNSKNTLFLQMNSLRAEDTAVYYCARGYNSRWYPDAFDIWGQGTMVTVSSASTKGPSVFPLAPCSRSTSESTAALGCLVKDYFPEPVTVSWNSGALTSGVHTFPAVLQSSGLYSLSSVVTVPSSNFGTQTYTCNVDHKPSNTKVDKTVERKSCVECPPCPAPPVAGPSVFLFPPKPKDTLMISRTPEVTCVVVDVSHEDPEVQFNWYVDGVEVHNAKTKPREEQFNSTFRVVSVLTVVHQDWLNGKEYKCKVSNKGLPAPIEKTISKTKGQPREPQVYTLPPSREEMTKNQVSLTCLVKGFYPSDIAVEWESNGQPENNYKTTPPMLDSDGSFFLYSKLTVDKSRWQQGNVFSCSVMHEALHNHYTQKSLSLSPG
light: not shown
notes: 4D4 variable regions; also called CD73.11-IgG2CS; mAb-CD73.11-Vh-hHC-IgG2-C219S
B8: 4C3 (antibody, human IgG1, kappa, V domains shown)
VH: B5 VH with N10G, N54K, N55S, N56G, D57S, I69T, P88A, P115L
VL: not shown
notes: IgG1za; also called 4C3-1

Residue numbers refer to the chain shown, from its start. Names and notes keep the numbering of the source. Values joined by “and” are separate entries in the source; they are usually repeats but may differ in a detail not shown here. Equal values may be shown once.

One assay has as its target T1, human CD73 on cells. The assay can be described thus: cell-based or functional assay.
B1: the “EC50 (nM), high-content internalization assay, Calu6, 2 h” value was 0.38 nM and the “Ymax, high-content internalization assay (percent of 100 nM 11F11)” value (“Ymax … (percent of 100 nM 11F11)” for short) was 104%.
As for B2, the “Ymax … (percent of 100 nM 11F11)” value was 29%.
In the case of B3, the “EC50 (nM), high-content internalization assay, Calu6, 2 h” value was 2.59 nM and the “Ymax … (percent of 100 nM 11F11)” value amounted to 50%.
For B4, in that order: 8.2 nM and 51%.

For another assay, the target named is T1, human CD73 on cells. The assay can be described thus: cell-based or functional assay. This is another data set of the same source.
Consider B5, for which the “EC50 Calu6 inhibition” value turned out to be 2.21 nM.
For the molecule B3, the “EC50 Calu6 inhibition” value turned out to be 0.95 nM, the “EC50 H292 inhibition” value stood at 1.31 nM and the “EC50 SKMEL24 inhibition” value stood at 3.72 nM.
As for B6, the “EC50 Calu6 inhibition” value was 8.1 nM, the “EC50 H292 inhibition” value amounted to 13.5 nM and the “EC50 SKMEL24 inhibition” value was determined as 110 nM.

The target in the next assay is T2, N-hCD73-his (N-terminal domain of human …). Description: SPR.
Molecule B7 had a dissociation constant (Kd) of about 5 nM.
Molecule B1 gave a dissociation constant (Kd) of about 5 nM.
Same read-out and setting: as for B8, the figure is 100 to 200 nM.

The target in the next assay is T1, human CD73 on cells. The assay can be described thus: cell-based or functional assay. The source holds these as a separate data set.
With B5, the “IC50 (nM), cAMP HTRF assay, Calu-6 with HEK293/A2AR cells” value (“IC50 (nM), cAMP HTRF assay” for short) came out at 4.87 nM and the “Ymax, cAMP HTRF assay (percent of 100 nM 11F11 control)” value stood at 84%.
On to B8, for which the “Ymax, cAMP HTRF assay (percent of 100 nM 11F11 control)” value came out at 80%.
Take B3: the “IC50 (nM), cAMP HTRF assay” value was 0.95 nM and the “Ymax, cAMP HTRF assay (percent of 100 nM 11F11 control)” value was determined as 45%.
With B6, the “IC50 (nM), cAMP HTRF assay” value was 13.2 nM and the “Ymax, cAMP HTRF assay (percent of 100 nM 11F11 control)” value is 80%.

For a further assay, the target named is T2, N-hCD73-his (N-terminal domain of human …). The assay can be described thus: SPR, mAb captured on protein A. As to the method: For these experiments, protein A (Pierce) was immobilized to a density of 3000-4000 RU on flow cells 1-4 of a CM5 sensor chip (GE Healthcare) using standard ethyl(dimethylaminopropyl) carbodiimide (EDC)/N-hydroxysuccinimide […] chemistry, with ethanolamine blocking, in a running buffer of 0.01 M HEPES pH 7.4, 0.15 M NaCl, 3 mM EDTA, 0.005% v/v tween 20. […] The running buffer for the kinetic experiments was 10 mM sodium phosphate, 130 mM sodium chloride, 0.05% tween 20, pH 7.1. The surfaces were regenerated after each cycle using two 30 s pulses of 10 mM glycine pH 1.5 at a flow rate of 30 μl/min. Sensogram data was double-referenced and then fitted to a 1:1 Langmuir model using Biacore T100 evaluation software v2.0.4, to determine the association rate constant (ka), the dissociation rate constant (kd), and the equilibrium dissociation constant (KD).
For the molecule B7, the Kd is 3.5 nM and 6.5 nM; the off-rate (koff) was 0.00028 s⁻¹ and 0.00051 s⁻¹; the on-rate (kon) is 80000 M⁻¹ s⁻¹ and 79000 M⁻¹ s⁻¹.
In the case of B1, the dissociation constant Kd was 9.4 nM and 6.2 nM; the koff was 0.00077 s⁻¹ and 0.00049 s⁻¹; the kon was 82000 M⁻¹ s⁻¹ and 79000 M⁻¹ s⁻¹.
B5 had a dissociation constant (Kd) of 140 nM, a koff of 0.0076 s⁻¹ and an on-rate (kon) of 55000 M⁻¹ s⁻¹.
Regarding B2, the dissociation constant Kd is 1.6 nM, the off-rate (koff) worked out at 0.00095 s⁻¹ and the kon was found to be 610000 M⁻¹ s⁻¹.
As to B3, the affinity, expressed as Kd, was 0.43 nM; the koff was 0.00038 s⁻¹; the kon turned out to be 880000 M⁻¹ s⁻¹.
For B4, in that order: 14 nM, 0.0032 s⁻¹ and 230000 M⁻¹ s⁻¹.
For B6, in that order: 41 nM, 0.006 s⁻¹ and 150000 M⁻¹ s⁻¹.

For a further assay, the target named is T1, human CD73 on cells. Description: binding titration on Calu6 cells, average of 2-6 experiments.
Molecule B1 gave an EC50 of 0.82 nM.
Molecule B5 yielded a concentration for a half-maximal effect (EC50) of 1.93 nM.
As for B3, it took 0.35 nM to reach a half-maximal effect (EC50).
B6 displayed a 50% effective concentration (EC50) of 11.7 nM.

The target of another assay is T3, rhCD73 bound to his-tag magnet beads. Description: cell-based or functional assay.
For B1, the “EC50 (nM), inhibition of bead-bound human CD73 enzymatic activity” value came out at 5.31 nM.
Still for that read-out and setting: for B5 the value was 3.12 nM; for B2, 6.94 nM; for B3, 2.86 nM.
Still for that read-out and setting: for B4 the value was 4.18 nM; for B6, 5.76 nM.

The values above are taken from US20190284293A1 (Bristol-Myers Squibb, published 2019).
